In patent US20250034212A1, “PEPTIDE” (PEPTIDREAM INC., priority 2021, published 2025):
Starred links: 1 amine or outer side, 2 acyl side, 3 side chain; linkers in the order of their positions; H or OH if unused. Positions of bridges follow the written chain, without caps; N, C: chain ends. Non-standard residues stand in square brackets, D forms with d. *: point of attachment. KCOmeglumine = N6-(methyl-((2S,3R,4R,5R)-2,3,4,5,6-pentahydroxyhexyl)carbamoyl)-L-lysine, CN(C[C@H](O)[C@@H](O)[C@H](O)[C@H](O)CO)C(=O)NCCCC[C@H](N[*:1])C(=O)[*:2]; KCOpipzaa = N6-(4-(carboxymethyl)piperazine-1-carbonyl)-L-lysine, O=C(NCCCC[C@H](N[*:1])C(=O)[*:2])N1CCN(CC(=O)[*:3])CC1; CH3O(CH2CH2O)7C2H4CO = COCCOCCOCCOCCOCCOCCOCCOCCC(=O)*; 1Nal = N[C@@H](Cc1cccc2ccccc12)C(=O)O; Gly(NCH2CH2Ph) = O=C(O)CNCCc1ccccc1; 4Pal = N[C@@H](Cc1ccncc1)C(=O)O

Biological target: T1, recombinant human TGF-β1 (R&D systems) (human, UniProt P01137 279-390)
Experiment: cell-based or functional assay

T1 sequence (P01137 279-390 limits assumed): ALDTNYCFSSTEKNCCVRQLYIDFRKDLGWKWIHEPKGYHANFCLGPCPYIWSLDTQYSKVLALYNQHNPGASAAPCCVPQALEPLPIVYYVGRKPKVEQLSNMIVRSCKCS

| SBE reporter % inhibition, peptide 0.062 nM [%] | SBE reporter % inhibition, peptide 0.185 nM [%] | SBE reporter % inhibition, peptide 0.56 nM [%] | SBE reporter % inhibition, peptide 1.7 nM [%] | SBE reporter % inhibition, peptide 5.0 nM [%] | SBE reporter % inhibition, peptide 15.0 nM [%] | Binder |
| --- | --- | --- | --- | --- | --- | --- |
| 6.49 | 20.8 | 53.8 | 85.2 | 97.1 | 99.5 | {CH2CO}-F[1Nal]VVNV[4Pal]D[KCOpipzaa][Gly(NCH2CH2Ph)]V[1Nal]YH[KCOpipzaa]CG-NH2 (thioether N-16; SMILES CC(C)[C@@H]1NC(=O)CN(CCc2ccccc2)C(=O)[C@H](CCCCNC(=O)N2CCN(CC(=O)O)CC2)NC(=O)[C@H](CC(=O)O)NC(=O)[C@H](Cc2ccncc2)NC(=O)[C@H](C(C)C)NC(=O)[C@H](CC(N)=O)NC(=O)[C@H](C(C)C)NC(=O)[C@H](C(C)C)NC(=O)[C@H](Cc2cccc3ccccc23)NC(=O)[C@H](Cc2ccccc2)NC(=O)CSC[C@@H](C(=O)NCC(N)=O)NC(=O)[C@H](CCCCNC(=O)N2CCN(CC(=O)O)CC2)NC(=O)[C@H](Cc2c[nH]cn2)NC(=O)[C@H](Cc2ccc(O)cc2)NC(=O)[C@H](Cc2cccc3ccccc23)NC1=O) [TGFb1_022] |
| 4.81 | 18.4 | 43.3 | 77.5 | 94.7 | 99.4 | {CH2CO}-F[1Nal]V[KCOmeglumine]NV[4Pal]D[KCOpipzaa][Gly(NCH2CH2Ph)]V[1Nal]YH[KCOpipzaa]CG-NH2 (thioether N-16; SMILES CC(C)[C@@H]1NC(=O)CN(CCc2ccccc2)C(=O)[C@H](CCCCNC(=O)N2CCN(CC(=O)O)CC2)NC(=O)[C@H](CC(=O)O)NC(=O)[C@H](Cc2ccncc2)NC(=O)[C@H](C(C)C)NC(=O)[C@H](CC(N)=O)NC(=O)[C@H](CCCCNC(=O)N(C)C[C@H](O)[C@@H](O)[C@H](O)[C@H](O)CO)NC(=O)[C@H](C(C)C)NC(=O)[C@H](Cc2cccc3ccccc23)NC(=O)[C@H](Cc2ccccc2)NC(=O)CSC[C@@H](C(=O)NCC(N)=O)NC(=O)[C@H](CCCCNC(=O)N2CCN(CC(=O)O)CC2)NC(=O)[C@H](Cc2c[nH]cn2)NC(=O)[C@H](Cc2ccc(O)cc2)NC(=O)[C@H](Cc2cccc3ccccc23)NC1=O) [TGFb1_025] |

Second part, the binder before the results:

| Binder | SBE reporter % inhibition, peptide 0.062 nM [%] | SBE reporter % inhibition, peptide 0.185 nM [%] | SBE reporter % inhibition, peptide 0.56 nM [%] | SBE reporter % inhibition, peptide 1.7 nM [%] | SBE reporter % inhibition, peptide 5.0 nM [%] | SBE reporter % inhibition, peptide 15.0 nM [%] |
| --- | --- | --- | --- | --- | --- | --- |
| {CH2CO}-F[1Nal]V[KCOmeglumine]NV[4Pal]D[KCOmeglumine][Gly(NCH2CH2Ph)]V[1Nal]YHECG-NH2 (thioether N-16; SMILES CC(C)[C@@H]1NC(=O)CN(CCc2ccccc2)C(=O)[C@H](CCCCNC(=O)N(C)C[C@H](O)[C@@H](O)[C@H](O)[C@H](O)CO)NC(=O)[C@H](CC(=O)O)NC(=O)[C@H](Cc2ccncc2)NC(=O)[C@H](C(C)C)NC(=O)[C@H](CC(N)=O)NC(=O)[C@H](CCCCNC(=O)N(C)C[C@H](O)[C@@H](O)[C@H](O)[C@H](O)CO)NC(=O)[C@H](C(C)C)NC(=O)[C@H](Cc2cccc3ccccc23)NC(=O)[C@H](Cc2ccccc2)NC(=O)CSC[C@@H](C(=O)NCC(N)=O)NC(=O)[C@H](CCC(=O)O)NC(=O)[C@H](Cc2c[nH]cn2)NC(=O)[C@H](Cc2ccc(O)cc2)NC(=O)[C@H](Cc2cccc3ccccc23)NC1=O) [TGFb1_030] | 10.9 | 14.3 | 29.9 | 52.5 | 80.8 | 95.2 |
| {CH2CO}-F[1Nal]V[KCOmeglumine]NV[4Pal]DE[Gly(NCH2CH2Ph)]V[1Nal]YH[KCOpipzaa]CG-NH2 (thioether N-16; SMILES CC(C)[C@@H]1NC(=O)CN(CCc2ccccc2)C(=O)[C@H](CCC(=O)O)NC(=O)[C@H](CC(=O)O)NC(=O)[C@H](Cc2ccncc2)NC(=O)[C@H](C(C)C)NC(=O)[C@H](CC(N)=O)NC(=O)[C@H](CCCCNC(=O)N(C)C[C@H](O)[C@@H](O)[C@H](O)[C@H](O)CO)NC(=O)[C@H](C(C)C)NC(=O)[C@H](Cc2cccc3ccccc23)NC(=O)[C@H](Cc2ccccc2)NC(=O)CSC[C@@H](C(=O)NCC(N)=O)NC(=O)[C@H](CCCCNC(=O)N2CCN(CC(=O)O)CC2)NC(=O)[C@H](Cc2c[nH]cn2)NC(=O)[C@H](Cc2ccc(O)cc2)NC(=O)[C@H](Cc2cccc3ccccc23)NC1=O) [TGFb1_024] | 5.79 | 16.6 | 45 | 80.2 | 95.5 | 98.9 |
| {CH2CO}-F[1Nal]V[KCOmeglumine]NV[4Pal]DD[Gly(NCH2CH2Ph)]V[1Nal]YH[KCOpipzaa]CG-NH2 (thioether N-16; SMILES CC(C)[C@@H]1NC(=O)CN(CCc2ccccc2)C(=O)[C@H](CC(=O)O)NC(=O)[C@H](CC(=O)O)NC(=O)[C@H](Cc2ccncc2)NC(=O)[C@H](C(C)C)NC(=O)[C@H](CC(N)=O)NC(=O)[C@H](CCCCNC(=O)N(C)C[C@H](O)[C@@H](O)[C@H](O)[C@H](O)CO)NC(=O)[C@H](C(C)C)NC(=O)[C@H](Cc2cccc3ccccc23)NC(=O)[C@H](Cc2ccccc2)NC(=O)CSC[C@@H](C(=O)NCC(N)=O)NC(=O)[C@H](CCCCNC(=O)N2CCN(CC(=O)O)CC2)NC(=O)[C@H](Cc2c[nH]cn2)NC(=O)[C@H](Cc2ccc(O)cc2)NC(=O)[C@H](Cc2cccc3ccccc23)NC1=O) [TGFb1_020] | 8.5 | 15.8 | 36.3 | 70.4 | 89.3 | 96.9 |
| {CH2CO}-F[1Nal]V[KCOmeglumine]NV[4Pal]D[KCOmeglumine][Gly(NCH2CH2Ph)]V[1Nal]YH[KCOpipzaa]CG-NH2 (thioether N-16; SMILES CC(C)[C@@H]1NC(=O)CN(CCc2ccccc2)C(=O)[C@H](CCCCNC(=O)N(C)C[C@H](O)[C@@H](O)[C@H](O)[C@H](O)CO)NC(=O)[C@H](CC(=O)O)NC(=O)[C@H](Cc2ccncc2)NC(=O)[C@H](C(C)C)NC(=O)[C@H](CC(N)=O)NC(=O)[C@H](CCCCNC(=O)N(C)C[C@H](O)[C@@H](O)[C@H](O)[C@H](O)CO)NC(=O)[C@H](C(C)C)NC(=O)[C@H](Cc2cccc3ccccc23)NC(=O)[C@H](Cc2ccccc2)NC(=O)CSC[C@@H](C(=O)NCC(N)=O)NC(=O)[C@H](CCCCNC(=O)N2CCN(CC(=O)O)CC2)NC(=O)[C@H](Cc2c[nH]cn2)NC(=O)[C@H](Cc2ccc(O)cc2)NC(=O)[C@H](Cc2cccc3ccccc23)NC1=O) [TGFb1_026] | 6.85 | 17.8 | 41.4 | 74.3 | 93.4 | 98 |
| {CH2CO}-F[1Nal]V[KCOpipzaa]NV[4Pal]DD[Gly(NCH2CH2Ph)]V[1Nal]YH[KCOpipzaa]CG-NH2 (thioether N-16; SMILES CC(C)[C@@H]1NC(=O)CN(CCc2ccccc2)C(=O)[C@H](CC(=O)O)NC(=O)[C@H](CC(=O)O)NC(=O)[C@H](Cc2ccncc2)NC(=O)[C@H](C(C)C)NC(=O)[C@H](CC(N)=O)NC(=O)[C@H](CCCCNC(=O)N2CCN(CC(=O)O)CC2)NC(=O)[C@H](C(C)C)NC(=O)[C@H](Cc2cccc3ccccc23)NC(=O)[C@H](Cc2ccccc2)NC(=O)CSC[C@@H](C(=O)NCC(N)=O)NC(=O)[C@H](CCCCNC(=O)N2CCN(CC(=O)O)CC2)NC(=O)[C@H](Cc2c[nH]cn2)NC(=O)[C@H](Cc2ccc(O)cc2)NC(=O)[C@H](Cc2cccc3ccccc23)NC1=O) [TGFb1_019] | 5.21 | 11.3 | 30.2 | 61.6 | 87.8 | 96.4 |

Biological target: T1, recombinant human TGF-β1 (R&D systems)
Experiment: cell-based or functional assay
Remark: another data set of the same source

| SBE reporter % inhibition, peptide 0.062 nM [%] | SBE reporter % inhibition, peptide 0.185 nM [%] | SBE reporter % inhibition, peptide 0.56 nM [%] | SBE reporter % inhibition, peptide 1.7 nM [%] | SBE reporter % inhibition, peptide 5.0 nM [%] | SBE reporter % inhibition, peptide 15.0 nM [%] | Binder |
| --- | --- | --- | --- | --- | --- | --- |
| 9.29 | 20.1 | 51.9 | 84.9 | 96.7 | 99.1 | {CH2CO}-F[1Nal]VVNV[4Pal]DD[Gly(NCH2CH2Ph)]V[1Nal]YH[KCOpipzaa]CGK(CH3O(CH2CH2O)7C2H4CO)-NH2 (thioether N-16; SMILES COCCOCCOCCOCCOCCOCCOCCOCCC(=O)NCCCC[C@H](NC(=O)CNC(=O)[C@@H]1CSCC(=O)N[C@@H](Cc2ccccc2)C(=O)N[C@@H](Cc2cccc3ccccc23)C(=O)N[C@@H](C(C)C)C(=O)N[C@@H](C(C)C)C(=O)N[C@@H](CC(N)=O)C(=O)N[C@@H](C(C)C)C(=O)N[C@@H](Cc2ccncc2)C(=O)N[C@@H](CC(=O)O)C(=O)N[C@@H](CC(=O)O)C(=O)N(CCc2ccccc2)CC(=O)N[C@@H](C(C)C)C(=O)N[C@@H](Cc2cccc3ccccc23)C(=O)N[C@@H](Cc2ccc(O)cc2)C(=O)N[C@@H](Cc2c[nH]cn2)C(=O)N[C@@H](CCCCNC(=O)N2CCN(CC(=O)O)CC2)C(=O)N1)C(N)=O, cyclic peptide; linker G K(MePEG8c) at the C-terminus) [TGFb1_031] |
